# Data published in patent US6719976B1, “Peptide-based immunotherapeutic agent for treating allergic diseases” (Meiji Milk Products Co., Ltd., priority 1996, dated 2004).
# B1: Cry j 1: major cedar pollen allergen, 353 amino acids, extracted and purified from cedar pollen (protein)
# chain: DNPIDSCWRGDSNWAQNRMKLADCAVGFGSSTMGGKGGDLYTVTNSDDDPVNPAPGTLRYGATRDRPLWIIFSGNMNIKLKMPMYIAGYKTFDGRGAQVYIGNGGPCVFIKRVSNVIIHGLYLYGCSTSVLGNVLINESFGVEPVHPQDGDALTLRTATNIWIDHNSFSNSSDGLVDVTLTSTGVTISNNLFFNHHKVMLLGHDDAYSDDKSMKVTVAFNQFGPNCGQRMPRARYGLVHVANNNYDPWTIYAIGGSSNPTILSEGNSFTAPNESYKKQVTIRIGCKTSSSCSNWVWQSTQDVFYNGAYFVSSGKYEGGNIYTKKEAFNVENGNATPQLTKNAGVLTCSLSKRC
# What was measured:
# CBF1 mice = test: Inducing immune tolerance by administering cedar pollen allergen to mice; type: in vivo; conditions: 300 μg/mouse s.c. twice, then sensitized with 100 μg Cry j 1 + Alum; compared to PBS control group
# Protocol: The detailed mechanism in hyposensitization therapy by which cedar pollen allergen is administered for the treatment is yet unknown. To clarify this mechanism, tests were conducted using mice. Cedar pollen allergen Cry j 1 was subcutaneously administered twice to five CBF1 female mice at intervals of 5 days in a dose of 300 μg/mouse. For control, the same dose of PBS was subcutaneously given to five other female mice. Five days later, the animals were sensitized by subcutaneous injection of 100 μg Cry j 1 together with Alum adjuvant. Ten days later, the lymphocytes were isolated to pool them as the lymphocytes from the control group and as the lymphocytes from the Cry j 1-administered mice. Cry j 1 was added to the pooled lymphocytes in doses of 0, 50 and 150 μg/ml. Incubation was performed for 3 days to collect the culture supernatant. In the control (PBS-administered) mouse group, IL-2 production increased as the concentration of Cry j 1 increased from 0 to 50 and 150 μg/ml. […] The results verify that currently implemented hyposensitization therapy using the cedar pollen allergen is efficacious.
# [1] = tested on: spleen cells of CBF1 mice immunized with rCry j 2; test: Identifying T cell epitopes in CBF1 mice (spleen cell [3H] thymidine uptake); type: cell-based, mouse; conditions: peptides 0.115 μM; Cry j 1 50 μg/ml; rCry j 2 0.3 μg/ml
# Protocol: Eight-week-old male CBF1 mice were boosted (i.p.) three times with 10 μg of recombinant Cry j 2 (rCry j 2) at intervals of two weeks together with an adjuvant (Imject Alum, manufactured by Pierce Inc.). One week after the final booster, the spleen cells (5×10^6 cells) were cultured together with each of the 74 kinds of Cry j 2 overlapping peptides (0.115 μM) consisting of 15 residues in 0.2 ml RPMI medium (supplemented with 10% FCS, 2 mM L-glutamine, 50 U/ml penicillin and 50 μg/ml streptomycin) in each well of a 96-well plate(manufactured by Falcon Inc.). For control, the reactivities with PBS, 50 μg/ml of Cry j 1, and 0.3 μg/ml of rCry j 2 were also observed. Each reagent was distributed in three wells and incubated at 37° C. for 3 days in 5% CO2. For the last 6 hours, pulse labeling was performed with 0.5 μCi/well of [^3H] thymidine. The cells were collected on a glass filter using a cell harvester (Inoteck, Bertold Japan Co., Ltd.). After drying, the level of [^3H] thymidine taken up into the cells was determined using a liquid scintillation counter (TRI-CARB 4530, Packard Japan KK).
# [2] = tested on: T cell line of each patient specifically recognizing Cry j 1 or Cry j 2; test: T cell line proliferation response to overlapping peptides ([3H] thymidine uptake); type: cell-based, human; conditions: 18 patients with cedar pollinosis; stimulation index 2 or more
# Protocol: Peripheral lymphocytes from 18 patients with cedar pollinosis were stimulated by cedar pollen allergen Cry j 1 or Cry j 2to establish the T cell line of each patient capable of specifically recognizing the respective allergen.
# A mixture of 5×10^4 cells of the autologous B cell line treated with mitomycin C, 2 μM of an overlapping peptide, and 2×10^4 cells of the T cell line was incubated for 2 days in RPMI-1640 medium supplemented with 0.2 ml of 15% serum on a 96-well culture plate. After 0.5 μCi [^3H] thymidine was added to the medium, incubation was continued for a further 18 hours. After the cells were harvested on a glass filter using a cell harvester, the level of [^3H] thymidine taken up into the cells was determined with a liquid scintillation counter. If the stimulation index is 2 or more, we consider that the added peptide is recognized as an antigenic peptide. The stimulation index means a value obtained by dividing the level of [^3H] thymidine taken up into the cells when the peptide was added by the level of [^3H] thymidine taken up into the cells when no peptide was added.
# The HLA class II type is considered to vary in every patient. It is thus assumed that a T cell epitope to be recognized would vary depending on the HLA class II type. For this reason, the antigenic peptide that the patients recognized was mapped for the individual patient. […] On the allergen molecule, there are both regions that can be readily recognized and regions that can hardly be recognized, as a T cell epitope, depending on individuals. Moreover, since the proliferation rate of T cells varies depending on a T cell epitope, the epitope map alone makes it difficult to determine what antigenic peptide should be chosen to design the multi-epitope peptide.
# human IgE antibody = test: Reactivity of the multi-epitope peptides with human IgE antibody (fluorescence plate assay); type: binding
# Protocol: (§1) The six multi-epitope peptides (C.A.#1 through C.A.#6) obtained in Example 6 were dissolved in 0.2 M acetate buffer solution (pH 4.5). The solution was dispensed in quantities of 0.1 ml/well in a black plate (manufactured by Dainihon Pharmaceutical Co., Ltd.) then allowed to stand at 4° C. overnight. After the antigen solution was removed, the wells were washed three times with a washing solution and the serum (4-fold dilution) from 29 patients with cedar pollinosis and healthy subjects were each added to separate wells. The system was then reacted at 37° C. for 4 hours. After the sera were removed, the wells were washed three times with a washing solution then reacted with anti-human IgE antibody (made by Pharmacia Inc.) at room temperature overnight. After washing three times with a washing solution, a substrate solution containing 0.1 mM 4-methylumbelliferyl-, β-D-galacto-pyranoside/0.01 M phosphate buffer (pH 7.0), 0.1 M NaCl, 1 mM MgCl2, 0.1% NaN, and 0.1% BSA was added, and the solution was incubated at 37° C. for 2 hours. A solution of 0.1 M glycine/NaOH (pH 10.3) was added to the wells to terminate the reaction. Fluorescent intensity was measured using a fluorophotometer (Labsystems). For positive control to each multi-epitope peptide, biotin-labeled rabbit anti-d epitope IgG and peroxidase-labeled streptoavidin (made by Pierce Inc.) were reacted.
# [3] = tested on: rabbit anti-d epitope IgG; test: Positive control reactivity with rabbit anti-d epitope IgG; type: binding; conditions: blank: 112
# Protocol: as §1
molecule,measurement,setting,value
B1,IL-2 production of lymphocytes restimulated with Cry j 1,CBF1 mice,obviously reduced
same,reactivity of spleen cells ([3H] thymidine uptake),[1],did not react
same,"number of T cell epitopes on the molecule that each patient recognized, average",[2],9.8
same,fluorescent intensity (human IgE reactivity),human IgE antibody; 14 subjects of 29,≥ 100
same,fluorescent intensity (human IgE reactivity),human IgE antibody; five subjects of 29,nine
same,fluorescent intensity (human IgE reactivity),human IgE antibody; four subjects of 29,≥ 10
same,fluorescent intensity (human IgE reactivity),human IgE antibody; six subjects of 29,"≥ 1,000"
same,fluorescent intensity with rabbit anti-d epitope peptide IgG,[3],230
